Assay results published in the DeepSol protein solubility set.

Assay: soluble on expression in E. coli; label from the status in PepcDB or PDB records

| Sequence | soluble on expression in E. coli |
| --- | --- |
| MFKTIDTNQKDVKLTVFSSDEKSFMVTATLVEKAGHAFLINSKFTQSDSKEIVEYLKKNNLSLDKIFIIHGDPDYYFGLESIKAVYPEAIAYATESTVEHIVHSVLGKLKVWKDALGENAPSNVVLPQVFKEKAIDFQGLTFELVGLEHYRTSLFNKELKVLIGGIDVFNEIHVFLADTSSKAAMEAWIENLKVLQALHADIIVPSHGSIEKSLNNQALTATMDYLRTAVQASEESGTSKDFVAKLEAAYPDYANKGVLELSAKVVTKEMPWGLEHHHHHH | soluble |
| MFNHVTVLLKETVDGLDIKPDGTYVDCTLGGGGHSSYLLSQLTEGGRLIAFDQDEIAIQNAKEKFSSYGEQFITVKSNFRYLSEKLQELGITEVDGILFDLGVSSPQLDTPERGFSYHHDAPLDMRMDQDAPLTAYDVVNSWSYEQLVRIFFQYGEEKFSKQIARKIEAYRENKAIETTGELVELIKEGIPAPARRTGGHPAKRVFQAIRIAVNDELKVFEEALESAIEMVKPGGRVSVITFHSLEDRICKTTFKRNSTTPQLPPGLPIIPDEFKPKLKLITRKPILPSDIELEENNRARSAKLRIAEKR | not soluble |
| MFNRGNTRVDVSSEPGTSGRYPERMIDQLPANYPCAKLKLDQFFLQWLSEHQDLVSTLVEDIQAGRPIHAPTAPVGPSPLSPSTAHMIFASTPPISPSKTRSPGTPLSPARRSTTTLGGSQKRGPLVSIPQFYFPTQSSNAGQGSDPATRDFLQRAEAAYKTDGGAAGLGQKAFVKMMQEVCELPSMVAYSLFKRLTGCEAGEEEGAAVPRDTFIKFWTGRGLVTAPPPKRAFDSLRPDGQDYLTFADFWPMMECVLRYHPGLEFLAETQEFQRKYAETVIHRIFYSLNKCGSGRLTFREFRSGELMDALYALDRENDINKILKFFSYEHFYVIYCKFWELDQDHDFQLDKTDLAHYSNCALSYVIVDRIFEEAPRKFKAGTPPGKMCYEDFVWFILSEEDKTTDTALTYWFRCVDLDGDGVIRPREMLYFYEEQLRRLEGWNQEPVQFEDLLCQLHDMLSPAKEGAFTLRDLKRTKPQSGLFFSSLFSLHKFVGFENRDPFAQRAEAAEFTGLSDWDKFAKIEYFRLASEDDQQDTAGGAMDTDEQI | not soluble |
| MFPLNDLSLKTQPVQLNKVTSNTESTIKQHELVSDDAIINELSSELVSCLGNGKFTPISEDSKLFNMLSEFKLLHSEYFEWGDYSLWFQDFSIYNKIGFIMIEKIRELVTHPFGINLEHHHHHH | not soluble |
| MFPSFITHIQSPNSHHHYSSPSFPFSSDFLESFDESFLINQFLLQQQDVAANVVESPWKFCKKLELKKKNEKCVDGSTSQEVQWRRTVKKRDRHSKICTAQGPRDRRMRLSLQIARKFFDLQDMLGFDKASKTIEWLFSKSKTSIKQLKERVAASEGGGKDEHLQVDEKEKDETLKLRVSKRRTKTMESSFKTKESRERARKRARERTMAKMKMRLFETSETISDPHQETREIKITNGVQLLEKENKEQEWSNTNDVHMVEYQMDSVSIIEKFLGLTSDSSSSSIFGDSEECYTSLSSVRGTISAAGNSNVLTKNPN | not soluble |
| MFPVVDDVKAKELGLEVVYNLELPLRPERQIYRNLEDLLPKDVVEKVGRLDIVGDIAIISIPDELMPRKGVIVEAIRKLYPKIKVIARRGFHTGVYRVRRLEVIWGENRLQTIHKENGVLLKIDLSKVFFNPRMKGERYRLAQLIKDGERILIPFAGVLPYALVIARFRKVDIVAVELNDEAVKLAQENVLLNKDKLKGKISIIHGDVFDVLPKLPSFDRVISPTPKGVDALALTLSKAKRFLHYYDFIHEDKLGEFKEKIIKECQKQGKECKVKVRKVADYKPHVYKVCADIEIK | soluble |
| MFQSSAAPAPQTADVTNPFGNFAAPSAFPTNVPPPAAHSAPFGVQPAPQHSAAPFYANLHQAPPMQSQAPNGHQAAPFGYPNAHPDDLARMTAQMSLNQQGAPAGWNTTTSAVSNNPFGATSAPQPMYTAPMGMYQQPFGAQPMWNPAMAAYGQQYGYGQPVPPQQQHQIQLVHAAMAAKNAAQAQQAQAASADPFGL | not soluble |
| MFRILTINPGSTSTKLSIFEDERMVKMQNFSHSPDELGRFQKILDQLEFREKIARQFVEETGYSLSSFSAFVSRGGLLDPIPGGVYLVDGLMIKTLKSGKNGEHASNLGAIIAHRFSSETGVPAYVVDPVVVDEMEDVARVSGHPNYQRKSIFHALNQKTVAKEVARMMNKRYEEMNLVVAHMGGGISIAAHRKGRVIDVNNALDGDGPFTPERSGTLPLTQLVDLCFSGKFTYEEMKKRIVGNGGLVAYLGTSDAREVVRRIKQGDEWAKRVYRAMAYQIAKWIGKMAAVLKGEVDFIVLTGGLAHEKEFLVPWITKRVSFIAPVLVFPGSNEEKALALSALRVLRGEEKPKNYSEESRRWRERYDSYLDGILRHHHHHH | soluble |
| MFRLGTTPRATTYDPDARIGEVASRFGLPTRVLIEIVRTESFQRSLARVTSGKPVVLDLRELDSDLASWIATHARLVEPALRELVRTVAPDVEPRVRFRGLPHRFRRVERIRPMDGALISIEGVVREVRGAERLEHAIVDTGSELVAVRLHGHRLGPGLRVEILGIVRSATLDALEVHKKDPIPEVHPDPAELEEFRELADKDPLTTFARAIAPLPGAEEVGKMLALQLFSCVGKNSERLHVLLAGYPVVCSEILHHVLDHLAPRGVYVDLRRTELTDLTAVLKEDRGWALRAGAAVLADGGILAVDHLEGAPEPHRWALMEAMDKGTVTVDGIALNARCAVLAAINPGEQWPSDPPIARIDLDQDFLSHFDLIAFLGVDPRPGEPEEQDTEVPSYTLLRRYLLYAIREHPAPELTEEARKRLEHWYETRREEVEERLGMGLPTLPVTRRQLESVERLAKAHARMRLSDDVEPEDVDIAAELVDWYLETAMQIPGGDEIRISSLKP | soluble |
| MFRTITSRLAFSVRQAEETVKPRIAYAQRSGRRIKEKVALMQAKRKEAGETGAPEKPGKFVLKTGKGTRDYGPAQSALRNSVLQTVTETFNRYGAETIDTPVFELRDVLMGKYGEEGGKLVYDLQDQGGELLSLRYDLTVPFARYLAMNKITNITRYQIAKVYRRDQPVMSRGRYREFYQCDFDIAGQYDLMLPEAECLGIVDELLTKLEIGEFFINLNHRLILEGMFAVSGIPAKDFKTICSSVDKLDKTPWEDVEQEMINEKFLTKEQTGKLGELVRFRELNSDLNNLELLEKMSQLPDLGQNDKFKKGAEELKVLIEYLNVDGVTTVRYEPSLARGLDYYTGAIYEAVAPKALEGTAVENSEDTAGQPVGVGSVAAGGRYDGLVKMFDSKANVPCCGVSFGIERLFAIMEARQKVAIRTTQTEVYVASAQKNLVRDRKKLVKMLRSAGIKTEMALKANPKLLTQFQYAEERRIPLAIVIGEQELKDGVVKLRNVVTRDEQTIKLDQLITAVRDTLAAL | not soluble |
| MFSAVHPDSRRDCKKYRYSQTSHQNYWFLKYSEFNLLGKRKIKGNFLHLFHAEEKVLFQSVMLKDQTAKTEKRTQEITCQLSKLANFEENNRKKLQDTERENKKLRNLINSLELKLVSSPENLPLQILFFLISENDELLERVFHFHCATFTKLSDFQLLFFPTPMYVANEYAKSGRNLWNEAIIADAIPEVSGPEAARMKQITDSIKYKESGFLIDRRVNASALIIQSNCSIFNSNF | not soluble |
| MFSENLKKCRKQKKLTQQNMADKLGITRPAYTAYELGSREPDYKTLINISNILDVSLDYLLKGESNEKVFQDEAKKVLNDPETFLAAKDGEVTDEILQAALEIITEQLKERRKSDK | not soluble |
| MFSLSFPSSSSALLPSLVAFDSSRRLSLQPKKLNRLQSHLFSPQHLSFSQSNVSRYRAFCVSSSSPPEGTVSVVDFHEKDWSFLESMEIDSTEHTQKIERIIKAGELSESSRVLVSISSETFVDRLVESSPSQLLLIVHDSLFTLACIKEKYDKVKCWQGEMIYVPEKWSPLDAVFLYFLPALPFDLDELFKTLSQRCSSGARVVISHPQGRLGLEQQRKEFSDVVVSDLPDESTLSNVAEKHSFELTQFVDEQGLYLAVLKSSKQ | soluble |
| MFSSAHSGLLEKLFHYIDLHQDEFVQTLKEWVAIESDSVQPVPRLRQKLFQMMALAADKLRNLGAGVESIDLGSQQMPDGQSLPIPPILLAELGSDPEKPTVCFYGHLDVQPAQKDDGWLTDPYTLTEVDGKLYGRGATDNKGPVLAWINAVSTFRALQQDLPVNIKLILEGMEEAGSIALEELVMREKDHFFSSVDYIVISDNLWLSQRKPALTYGTRGNCYFTVEVKCRDQDFHSGTFGGILNEPMADLVALLGSLVDSSGHILIPGIYDQMAPITEGEKTMYKNIDMDLEEYQNINQVEKFLFDTKEELLMHLWRYPSLSIHGIEGAFDEPGTKTVIPGRVLGKFSIRLVPTMSPSVVEKQVTQHLEAVFSKRNSFNKMAVSMVLGLHPWTANVNDTQYLAAQRTIKTVFGVNPDMIRDGSTIPIAKIFQAITQKSVMMLPLGAVDDGEHSQNEKINRWNYIQGSKLFAAFFLELSKQHSGHQMPSSVY | not soluble |
| MFSYHELITIESVARLGSFSQAADELHKVPSAISYTIKSVEDRLTVVLFTRLHRRVELTAAGTYFVDQARKLLKDMEEIRFNTQRVANGWQQSVSVALDNVVRENSVNQLVRDFYATFPDIELQLTMEVFNGVWDALMTGRADIGIGATATIPIGGDFSYRPMGELAWDFIVSINHPLASFEHDIPNEELVKYPAICLEDTSQILPKRSTWLLDNQRRLIVPNWHSAEQCFIDGLGVGVIPNHRAKRLLETGQVISKKIEHHIAPSPCCLAWNNNNQSVAIQWLLDYLGDSDKLNSEWLKEF | not soluble |
| MFTGLVEAIGVVKDVQGTIDNGFAMKIEAPQILDDCHTGDSIAVNGTCLTVTDFDRYHFTVGIAPESLRLTNLGQCKAGDPVNLERAVLSSTRMGGHFVQGHVDTVAEIVEKKQDGEAIDFTFRPRDPFVLKYIVYKGYIALDGTSLTITHVDDSTFSIMMISYTQSKVIMAKKNVGDLVNVEVDQIGKYTEKLVEAHIADWIKKTQA | soluble |
| MFVLNIFSTTHKQRGLNRASCPPLGNYSNNHTLAYRVKCISEETRDSNSLVSSLNRKLWKTSVAGSDIPMIYSPFLEDMQNTLFASFETVEDYPLSEFLASAQSSKKPARIESWCYQCPKFRKIRLTYLDAGVAAQVFNAVWYPISSLELPILGVDFLSFGGKNVLCVMDFQPLMNDQYYLDKYIQPLHPIRERYADLAGRMSSRFYDENRFFSKELLFGRFDSTKPIYERLFPAFREYLDLYITLAKQTVEDDKSRSIIWQLQCEYDRYSAEKDPAMSLFRSYFGSTWAHRFVYEFLFENSRYESSLDNKT | soluble |
| MFYFRNLDGYTFFSFMKQKPRRNLFIGVPPLEGTCTKEVVHEAIKEILFYSYC | not soluble |
| MFYLSELEHSLRVPPHLLNLPLEDAIKSVLQNVFLDKVLADLGLCVSIYDIKSVEGGFVLPGDGAATYKVGLRIVVFRPFVGEVIAAKFKESDANGLRLTLGFFDDIYVPAPLMPKPNRCEPDPYNRKQMIWVWEYGEPKEDYIVDDACQIKFRVESISYPSVPTERAEDAKPFAPMVVTGNMDDDGLGPVSWWDSYEQVDQEE | soluble |
| MGAFFVGVIWHFPVLAFCPLPDKPQWVAVRQVVDGDTLRLVDGRSVRLIGINAPEMGRKGRTSEPYAEAARRRLQALVKANDDRVGLVPGVEGKDKYGRTLAHIYSRNGDNLEAQLLSEGLGYRVAIAPNVRLSGCQQLAEQAARQAGVGLWRHSPVVAASDVRQSGFAVVRGRIEGIERNRGGVWLTLGSTLVLQVPARLQRNFPASFFDNLKGRQVEARGWVLDRSRRGGLKPGQRRWVLPLTDPSMLERISGLEHHHHHH | not soluble |
